Measurements taken from US10005846B2, “Anti-transglutaminase 2 antibodies” (MEDICAL RESEARCH COUNCIL TECHNOLOGY, priority 2012, dated 2018).

Key:
[1] = target: T1, HepG2 cell lysate proteins (Homo sapiens, UniProt P21980); test: Western blot of HepG2 lysate immunoprobed with AB1; format: binding; settings: 25 μg of lysate
T1 construct: endogenous in cells; host or cells: HepG2
T1 sequence (P21980 1-687): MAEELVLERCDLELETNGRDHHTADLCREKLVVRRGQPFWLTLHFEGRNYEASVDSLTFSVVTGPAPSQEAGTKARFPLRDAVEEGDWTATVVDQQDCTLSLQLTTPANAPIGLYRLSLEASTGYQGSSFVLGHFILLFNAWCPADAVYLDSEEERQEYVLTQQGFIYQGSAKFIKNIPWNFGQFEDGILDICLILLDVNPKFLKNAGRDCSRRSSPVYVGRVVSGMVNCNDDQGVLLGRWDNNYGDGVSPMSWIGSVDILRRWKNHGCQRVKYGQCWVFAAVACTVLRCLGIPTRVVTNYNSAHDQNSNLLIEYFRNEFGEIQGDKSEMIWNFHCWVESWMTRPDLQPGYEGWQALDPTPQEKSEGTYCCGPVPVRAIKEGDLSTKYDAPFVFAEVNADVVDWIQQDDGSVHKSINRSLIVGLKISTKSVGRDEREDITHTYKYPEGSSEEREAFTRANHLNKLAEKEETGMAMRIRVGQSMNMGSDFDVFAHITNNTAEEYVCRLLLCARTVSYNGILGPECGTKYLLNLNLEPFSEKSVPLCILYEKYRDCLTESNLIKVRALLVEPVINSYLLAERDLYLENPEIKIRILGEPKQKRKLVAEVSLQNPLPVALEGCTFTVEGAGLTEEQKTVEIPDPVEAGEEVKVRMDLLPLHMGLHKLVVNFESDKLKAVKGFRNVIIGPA
Description: B: HepG2 cells were exposed to increasing glucose concentrations for 96 hours to up regulate TG2 expression. Cells were harvested, lysed and 25 ug of lysate fractionated by SDS-PAGE, western blotted and then immunoprobed with a 1 ng/ml solution of AB1 IgG using a chemiluminesant end point.
Confirmation of TG2 core protein synthesis as well as TG2 and TG2 core reactivity levels following immunisation were all measured by western blotting. Recombinant proteins (10 to 80 ng) were loaded on a 10% (w/v) polyacrylamide denaturing or non-denaturing gel as required and transferred onto PVDF membranes (Transblot SD, Biorad, UK) for one hour at 100 V. Membranes were blocked overnight at 4° C. with 3% (w/v) BSA in TBS/0.1% (v/v) Tween 20. The membranes were then washed and probed with monoclonal mouse anti-transglutaminase antibodies in TBS/Tween containing 1% BSA. For proof of recombinant TG2 core protein and as a positive control for antibody screening the commercial antibody Cub7402 (neomarkers) was used at a 1:1000 dilution. Binding of primary antibody was detected with the anti-mouse gamma-chain-HRP linked secondary antibody (Sigma, Poole, UK). Bands were visualised using ECL chemiluminescent detection system (Amersham, UK).

[2] = target: T2, TG2 activity in HepG2 cell homogenate (Homo sapiens, UniProt P21980); test: 3H putrescine incorporation TG activity assay in HepG2 cell homogenate; format: biochemical
T2 construct: endogenous in cells; host or cells: HepG2
T2 sequence (P21980 1-687): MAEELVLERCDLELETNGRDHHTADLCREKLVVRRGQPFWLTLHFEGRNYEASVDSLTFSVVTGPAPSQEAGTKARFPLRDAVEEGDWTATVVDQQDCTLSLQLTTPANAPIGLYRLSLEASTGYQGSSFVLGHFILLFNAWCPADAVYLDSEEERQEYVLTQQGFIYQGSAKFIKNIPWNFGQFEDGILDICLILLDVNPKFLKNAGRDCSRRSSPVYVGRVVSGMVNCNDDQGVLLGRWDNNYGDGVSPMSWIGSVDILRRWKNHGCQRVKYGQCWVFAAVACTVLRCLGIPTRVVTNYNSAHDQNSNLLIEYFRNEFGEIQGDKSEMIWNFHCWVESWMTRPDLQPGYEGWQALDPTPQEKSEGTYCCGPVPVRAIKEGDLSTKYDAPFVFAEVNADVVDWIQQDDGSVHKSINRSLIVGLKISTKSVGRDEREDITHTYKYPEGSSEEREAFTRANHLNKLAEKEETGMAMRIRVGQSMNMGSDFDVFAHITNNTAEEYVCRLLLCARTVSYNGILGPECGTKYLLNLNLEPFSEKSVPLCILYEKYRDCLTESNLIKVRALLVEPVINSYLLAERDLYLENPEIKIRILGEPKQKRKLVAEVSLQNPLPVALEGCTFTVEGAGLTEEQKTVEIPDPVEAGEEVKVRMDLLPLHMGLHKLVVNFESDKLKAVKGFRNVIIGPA
Description: A: Hep2G cells were lysed and 45 ug of protein mixed with 750 ng of IgG from AB1, DH2, DD9, BB7, DC1 and EH6 for 20 minutes. This was subsequently assayed using the ^3H Putrescine incorporation TG activity assay with sampling over 1 hour. The rate of reaction was calculated and expressed as a percentage of the same lysate incubated with a random antibody (MAB002). Data represents the mean percentage inhibition ±SEM from 2 separate experiments done in duplicate. *p<0.05
HepG2 cells were kindly supplied by Richard Ross (University of Sheffield). Cells were routinely grown at 37° C. in a 95% humidified atmosphere of 5% CO2 in DMEM/4.5 g per liter glucose supplemented with 10% foetal calf serum (FCS), 100 IU penicillin and 100 μg/ml streptomycin, 2 mM I-glutamine (all GIBCO). Two million cells were seeded on a 10 cm dishes and grown for 48 hours. Cells were lysed in 250 μl of STE buffer (0.32M sucrose, 5 mM Tris, 1 mM EDTA containing protease inhibitors Phenylmethylsulphonyl fluoride (1 mM), benzamidine (5 mM), and leupeptin (10 μg/ml) and sonicated on ice to produce a cell lysate usable in TG2 activity assay.
The same protocol was used to assess TG inhibition in cell lysates by replacing the 25 μl of recombinant protein with 25 μl of cell lysate.

[3] = target: T3, extracellular TG2 in human HK-2 cells (Homo sapiens, UniProt P21980); test: Extracellular TG activity in HK-2 cells, biotin cadaverine incorporation into fibronectin (Example 1); format: cell-based
T3 construct: endogenous in cells; host or cells: HK-2 (kidney proximal tubular epithelium)
T3 sequence (P21980 1-687): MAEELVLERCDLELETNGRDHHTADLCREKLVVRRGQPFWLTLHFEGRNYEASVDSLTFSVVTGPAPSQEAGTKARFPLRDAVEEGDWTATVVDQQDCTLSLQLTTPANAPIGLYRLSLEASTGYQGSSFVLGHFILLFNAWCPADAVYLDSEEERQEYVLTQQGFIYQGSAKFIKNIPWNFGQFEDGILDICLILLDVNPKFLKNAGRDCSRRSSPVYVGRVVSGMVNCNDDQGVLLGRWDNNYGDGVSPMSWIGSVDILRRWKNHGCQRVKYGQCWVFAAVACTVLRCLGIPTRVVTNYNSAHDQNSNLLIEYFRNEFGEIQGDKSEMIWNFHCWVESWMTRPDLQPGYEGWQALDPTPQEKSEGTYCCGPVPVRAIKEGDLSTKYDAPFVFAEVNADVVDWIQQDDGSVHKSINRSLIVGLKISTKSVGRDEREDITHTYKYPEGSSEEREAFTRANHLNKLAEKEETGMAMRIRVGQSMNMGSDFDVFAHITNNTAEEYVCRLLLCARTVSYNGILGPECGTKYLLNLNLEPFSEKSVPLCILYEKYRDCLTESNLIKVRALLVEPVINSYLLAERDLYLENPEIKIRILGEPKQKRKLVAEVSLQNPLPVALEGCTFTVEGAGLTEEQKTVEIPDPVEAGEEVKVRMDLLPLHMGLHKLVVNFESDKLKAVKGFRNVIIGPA
Description: HK2 cells were plated onto fibronectin and incubated for 2 hours in the presence of 0.1M biotin cadaverine with either 4 ng/μl of human anti-TG2 antibody (AB1) (part A), 4 ng/μl of human anti-TG2 antibody (DC1) (part B) or 400 μM of the site-specific pan TG inhibitor 1,3-Dimethyl-2-[(2-oxo-propyl)thio]imidazolium chloride. […] Changes in optical density were measured at 450 nm in a 96 well plate reader. Data represents mean OD at 450 nm corrected to 1 mg of cell protein. n=6 wells per experimental group.
Extracellular TG activity was measured by modified cell ELISA. HK-2 epithelial cells were harvested using 0.1M EDTA or 0.25% trypsin/EDTA and plated at a density of 8×10^4 cells/well in serum free medium onto a 96 well plate that had been coated overnight with 100 μl/well of fibronectin (5 μg/ml in 50 mM Tris-HCl pH 7.4) (Sigma, Poole UK). Cells were allowed to attach for 2.5 h at 37° C. in the presence of the 0.1 mM biotin cadaverine [N-(5 amino pentyl biotinamide) trifluoroacetic acid] (Molecular Probes, Eugene Oreg., USA). Plates were washed twice with 3 mM EDTA/PBS and cells removed with 0.1% (w/v) deoxycholate in 5 mM EDTA/PBS. The supernatant was collected and used for protein determination. […] The reaction was stopped with 50 μl 2.5 M H2SO4 and the absorbance read at 450 nm.

human TG2 = target: T4, human TG2 (Homo sapiens, UniProt P21980); test: 3H-putrescine incorporation TG activity assay with recombinant human TG2; format: biochemical
T4 sequence (P21980 1-687): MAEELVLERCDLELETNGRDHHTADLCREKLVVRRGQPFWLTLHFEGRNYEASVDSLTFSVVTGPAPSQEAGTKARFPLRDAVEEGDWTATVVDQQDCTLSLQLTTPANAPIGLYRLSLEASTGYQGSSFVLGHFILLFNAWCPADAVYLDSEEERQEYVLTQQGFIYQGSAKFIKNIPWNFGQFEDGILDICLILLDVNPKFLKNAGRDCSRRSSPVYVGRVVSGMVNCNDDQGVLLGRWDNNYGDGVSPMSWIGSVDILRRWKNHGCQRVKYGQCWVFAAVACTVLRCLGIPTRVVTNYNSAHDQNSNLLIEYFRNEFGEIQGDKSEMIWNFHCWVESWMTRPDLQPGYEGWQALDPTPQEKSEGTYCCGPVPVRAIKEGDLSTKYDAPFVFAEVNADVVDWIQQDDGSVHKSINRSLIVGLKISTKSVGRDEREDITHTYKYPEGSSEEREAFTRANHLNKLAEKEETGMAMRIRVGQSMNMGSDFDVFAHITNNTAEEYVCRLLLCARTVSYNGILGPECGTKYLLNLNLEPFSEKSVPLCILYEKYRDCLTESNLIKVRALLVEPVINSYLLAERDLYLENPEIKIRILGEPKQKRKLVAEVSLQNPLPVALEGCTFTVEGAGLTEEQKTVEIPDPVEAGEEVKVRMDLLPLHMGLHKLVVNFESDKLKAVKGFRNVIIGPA
Description: To determine an IC50 value for each antibody against human, rat and mouse the ^3H Putrescine assay was used. 100 ng of human TG2 or 25 ng of mouse and rat TG2 was used to generate a reaction where approximately 3000 cpm of Putrescine were incorporated per hour in 10 ul of the reaction mixture. Serial dilutions of each antibody were then applied starting from adding 500 ng (5 ug/ml final concentration) to the reaction mixture and incubated with the TG2 for 20 minutes prior to activating the reaction. IC50 values were calculated by determining the concentration at which the enzymatic rate of reaction was reduced by 50% using an appropriate curve fit in graphpad prism. Values are expressed as the amount of IgG in […] in the reaction that would inhibit 1 ng of TG2.
TG activity is measured by the Ca^2+ dependent incorporation of ^3H-putrescine into N′,N′-dimethylcasein. Recombinant human TG2 (100 ng) was pre-incubated for twenty minutes at room temperature with the test sample (conditioned medium or purified IgG) before starting the reaction. Twenty-five μl of reaction mix (5 μl of 25 mM CaCl2, 5 μl of 40 mM dithiothreitol, 5 μl ^3H-putrescine mix, and 10 μl 25 mg/ml of N,N′ dimethylcasein (replace 25 mM CaCl2 with 100 mM EDTA for a non-enzymatic control) was added to start the reaction and the samples incubated at 37° C. for up to 1 hour. Aliquots of 10 μl were spotted onto a strip of 3 MM Whatman filter paper and plunged immediately into ice-cold 10% trichloroacetic acid (TCA) in order to precipitate the cross-linked proteins typically at time 0, 10, 30 and 60 minutes into the reaction. After three extensive washes in ice-cold 5% TCA followed by 3 rinses with ice-cold 95% ethanol, the air dried filter was counted in 2 ml of scintillation fluid (Ultima Gold Packard, Perkin Elmer). The rate of reaction was calculated. 1 TG unit is equivalent to the incorporation of 1 nmol of putrescine per hour at 37° C.

B1: AB1: murine monoclonal anti-TG2 IgG, Group 1 (epitope amino acids 304 to 326); VH and VK in FIGS. 7 and 18 (antibody, V domains shown)
VH: EVQLVESGGGLVKPGGSLKLSCAASGFTLSSSAMSWVRQTPDRRLEWVATISVGGGKTYYPDSVKGRFTISRDNAKNTLYLQMNSLRSEDTAMYYCAKLISLYWGQGTTLTVSS
VL: DIKMTQSPSSMYASLGERVTITCKASQDINSYLTWFQQKPGKSPKTLIYRTNRLFDGVPSRFSGSGSGQDFFLTISSLEYEDMGIYYCLQYDDFPYTFGGGTKLEIK
For B1, the “off target association in HepG2 lysate” value [1] was “no off target association”, the “inhibition of TG2 in human Hep2G cells (in words)” value [2] was “able to inhibit TG2 successfully” and the “inhibition of TG2 activity in HepG2 homogenate” value ([2]; 0.5 μg of antibody, 45 ug lysate protein) was 70%. For the same molecule, the “inhibition of extracellular TG activity” value ([3]; 4 ng/ul in the culture media) was 60%, the “inhibition of extracellular TG2 in human HK-2 cells (in words)” value ([3]; applied to the culture media) was “able to inhibit TG2 successfully” and the “IC50 against human TG2” value (human TG2; amount of IgG in the reaction that would inhibit 1 ng of TG2, 100 ng human TG2) was 0.011 µg/mL. For the same molecule, the “hybridoma supernatant ability to inhibit TG2 activity” value (human TG2; initial screen of conditioned medium, 100 ng of TG2) was “able to inhibit TG2 activity”.
